Test results: publication PMC4522956, “Unsaturated fatty acids as high-affinity ligands of the C-terminal Per-ARNT-Sim domain from the Hypoxia-inducible factor 3α” (Scientific Reports, 2015)

Biological target: T1, HIF-1β PASb labeled with FITC (human (cDNA library from the breast …, UniProt P27540 349-467, FITC (fluorescein isothiocyanate) label, sites not stated))
T1 construct: HIF-1β (ARNT), PASb domain, Pro349-Ser467 of UniProt P27540; Same construct as m2, labeled with a 20-fold molar excess of FITC in borate buffer pH 8.5; also called PASb-1β labeled with FITC; PASb-1β; source: E. coli Rosetta-2, purified (TALON, MonoQ, Superdex 75), then labeled with FITC; not shown: 6xHis, N-terminal, cleaved
Assay: fluorescence polarisation; unlabeled PASb-1α or PASb-3α serially diluted 1:2 from about 1 mM, mixed with FITC-labeled PASb-1β at 20 nM final; 30 mM Hepes pH 7.5, 150 mM NaCl, 0.5 mM TCEP; room temperature; triplicate
Settings: both partners purified

T1 sequence (P27540 349-467): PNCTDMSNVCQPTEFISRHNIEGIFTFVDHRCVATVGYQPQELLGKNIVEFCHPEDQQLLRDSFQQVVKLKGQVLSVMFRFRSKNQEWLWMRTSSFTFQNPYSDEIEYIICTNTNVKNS

B1: HIF-1α PASb (domain or fragment)
chain: not shown
notes: Hypoxia-inducible factor 1α, PASb domain, Asp238-His348 of UniProt Q16665; Cloned NdeI/XhoI into pET28a; residues of the vector probably remain at the N-terminus after thrombin cleavage (surmise); also called PASb-1α; source: E. coli Rosetta-2, purified (TALON, MonoQ, Superdex 75); not shown: 6xHis, N-terminal, cleaved
binding result: binds
